{
  "source": "patent US20230107004",
  "about": "“[…] ELECTROCHEMICAL BIOSENSOR” (THE GOVERNING COUNCIL OF THE UNIVERSITY OF TORONTO, published 2023)",
  "biological_target": "SARS-CoV-2 spike (S/S1) protein (SARS-CoV-2, UniProt P0DTC2 P0DTC2:14-685)",
  "data": [
    {"binder": "CoV2-RBD-4C aptamer-P2 hybridized to P1 (iMP) (mixed, P1 strand 5'-thiol-MC6 on gold electrode, 3'-NH2 conjugated to ferrocene) DNA 1: ATCCAGAGTGACGCAGCATTTCATCGGGTCCAAAAGGGGCTGCTCGGGATTGCGGATATGGACACGTTTTTCTTATTAGATACAATAGCTGGTA DNA 2: TACCAGCTATTGTATCTAATAAGA", "values": [
      {"measurement": "binding result", "value": "binds"}
    ]}
  ]
}
